Results taken from IntAct's records for PubMed 31515488.

B1: Vesicle transport through interaction with t-SNAREs homolog 1B (Homo sapiens), Q9UEU0 (parent)
chain: MASSAASSEHFEKLHEIFRGLHEDLQGVPERLLGTAGTEEKKKLIRDFDEKQQEANETLAEMEEELRYAPLSFRNPMMSKLRNYRKDLAKLHREVRSTPLTATPGGRGDMKYGIYAVENEHMNRLQSQRAMLLQGTESLNRATQSIERSHRIATETDQIGSEIIEELGEQRDQLERTKSRLVNTSENLSKSRKILRSMSRKVTTNKLLLSIIILLELAILGGLVYYKFFRSH
partner: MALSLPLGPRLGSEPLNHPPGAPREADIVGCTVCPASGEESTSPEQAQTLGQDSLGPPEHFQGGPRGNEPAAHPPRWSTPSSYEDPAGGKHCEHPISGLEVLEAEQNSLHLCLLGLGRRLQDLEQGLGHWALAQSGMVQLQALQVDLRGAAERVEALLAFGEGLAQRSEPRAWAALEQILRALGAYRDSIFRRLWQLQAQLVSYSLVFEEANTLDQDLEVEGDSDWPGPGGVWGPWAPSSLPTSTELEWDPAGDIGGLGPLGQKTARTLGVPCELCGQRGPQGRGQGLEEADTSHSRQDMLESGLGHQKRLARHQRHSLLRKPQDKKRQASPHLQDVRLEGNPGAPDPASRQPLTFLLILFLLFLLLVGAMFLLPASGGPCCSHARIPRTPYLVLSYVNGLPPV
B2: Tetraspanin-2 (Homo sapiens), O60636 (parent)
chain: MGRFRGGLRCIKYLLLGFNLLFWLAGSAVIAFGLWFRFGGAIKELSSEDKSPEYFYVGLYVLVGAGALMMAVGFFGCCGAMRESQCVLGSFFTCLLVIFAAEVTTGVFAFIGKGVAIRHVQTMYEEAYNDYLKDRGKGNGTLITFHSTFQCCGKESSEQVQPTCPKELLGHKNCIDEIETIISVKLQLIGIVGIGIAGLTIFGMIFSMVLCCAIRNSRDVI
partner: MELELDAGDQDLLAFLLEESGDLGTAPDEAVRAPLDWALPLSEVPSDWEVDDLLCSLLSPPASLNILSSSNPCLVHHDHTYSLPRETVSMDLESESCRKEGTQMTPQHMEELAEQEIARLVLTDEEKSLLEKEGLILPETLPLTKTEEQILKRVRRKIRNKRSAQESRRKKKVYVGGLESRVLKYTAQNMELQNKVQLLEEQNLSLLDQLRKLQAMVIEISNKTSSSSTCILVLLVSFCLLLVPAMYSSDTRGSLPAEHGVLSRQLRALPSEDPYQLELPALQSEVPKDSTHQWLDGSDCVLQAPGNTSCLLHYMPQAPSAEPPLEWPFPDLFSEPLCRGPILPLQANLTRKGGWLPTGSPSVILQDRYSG
B3: Ras-related protein Rab-39B (Homo sapiens), Q96DA2 (parent)
chain: MEAIWLYQFRLIVIGDSTVGKSCLIRRFTEGRFAQVSDPTVGVDFFSRLVEIEPGKRIKLQIWDTAGQERFRSITRAYYRNSVGGLLLFDITNRRSFQNVHEWLEETKVHVQPYQIVFVLVGHKCDLDTQRQVTRHEAEKLAAAYGMKYIETSARDAINVEKAFTDLTRDIYELVKRGEITIQEGWEGVKSGFVPNVVHSSEEVVKSERRCLC
B4: Proteasome subunit beta type-1 (Homo sapiens), P20618 (parent)
chain: MLSSTAMYSAPGRDLGMEPHRAAGPLQLRFSPYVFNGGTILAIAGEDFAIVASDTRLSEGFSIHTRDSPKCYKLTDKTVIGCSGFHGDCLTLTKIIEARLKMYKHSNNKAMTTGAIAAMLSTILYSRRFFPYYVYNIIGGLDEEGKGAVYSFDPVGSYQRDSFKAGGSASAMLQPLLDNQVGFKNMQNVEHVPLSLDRAMRLVKDVFISAAERDVYTGDALRICIVTKEGIREETVSLRKD
B5: Alpha-ketoglutarate-dependent dioxygenase alkB homolog 3 (Homo sapiens), Q96Q83 (parent)
chain: MEEKRRRARVQGAWAAPVKSQAIAQPATTAKSHLHQKPGQTWKNKEHHLSDREFVFKEPQQVVRRAPEPRVIDREGVYEISLSPTGVSRVCLYPGFVDVKEADWILEQLCQDVPWKQRTGIREDITYQQPRLTAWYGELPYTYSRITMEPNPHWHPVLRTLKNRIEENTGHTFNSLLCNLYRNEKDSVDWHSDDEPSLGRCPIIASLSFGATRTFEMRKKPPPEENGDYTYVERVKIPLDHGTLLIMEGATQADWQHRVPKEYHSREPRVNLTFRTVYPDPRGAPW
partner: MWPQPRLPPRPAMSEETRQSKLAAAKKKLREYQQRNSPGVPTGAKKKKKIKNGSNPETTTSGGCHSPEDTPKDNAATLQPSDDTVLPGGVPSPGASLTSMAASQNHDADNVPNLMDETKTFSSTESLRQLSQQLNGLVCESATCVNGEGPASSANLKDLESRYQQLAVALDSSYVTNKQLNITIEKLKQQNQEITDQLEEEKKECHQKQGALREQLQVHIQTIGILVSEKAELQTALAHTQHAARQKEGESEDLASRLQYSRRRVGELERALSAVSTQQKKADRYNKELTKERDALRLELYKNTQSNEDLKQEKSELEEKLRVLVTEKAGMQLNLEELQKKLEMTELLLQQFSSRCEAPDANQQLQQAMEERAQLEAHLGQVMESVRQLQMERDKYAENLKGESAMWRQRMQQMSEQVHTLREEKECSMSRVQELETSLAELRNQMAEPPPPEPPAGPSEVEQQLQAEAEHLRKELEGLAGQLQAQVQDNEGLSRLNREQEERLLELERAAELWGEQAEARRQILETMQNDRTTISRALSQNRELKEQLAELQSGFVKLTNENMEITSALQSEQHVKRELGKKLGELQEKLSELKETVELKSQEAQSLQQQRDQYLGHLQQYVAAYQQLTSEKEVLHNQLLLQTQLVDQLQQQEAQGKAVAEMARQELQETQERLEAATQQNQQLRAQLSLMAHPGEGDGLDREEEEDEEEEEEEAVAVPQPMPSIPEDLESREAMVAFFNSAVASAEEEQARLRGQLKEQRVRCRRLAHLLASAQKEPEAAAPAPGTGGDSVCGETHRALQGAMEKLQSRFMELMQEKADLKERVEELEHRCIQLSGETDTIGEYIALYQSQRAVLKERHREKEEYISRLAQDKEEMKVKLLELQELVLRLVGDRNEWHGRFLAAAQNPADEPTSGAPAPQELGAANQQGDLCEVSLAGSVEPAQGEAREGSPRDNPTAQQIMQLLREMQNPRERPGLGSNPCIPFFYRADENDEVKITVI
B6: Zinc finger protein 473 (Homo sapiens), Q8WTR7 (parent)
chain: MAEEFVTLKDVGMDFTLGDWEQLGLEQGDTFWDTALDNCQDLFLLDPPRPNLTSHPDGSEDLEPLAGGSPEATSPDVTETKNSPLMEDFFEEGFSQEIIEMLSKDGFWNSNFGEACIEDTWLDSLLGDPESLLRSDIATNGESPTECKSHELKRGLSPVSTVSTGEDSMVHNVSEKTLTPAKSKEYRGEFFSYSDHSQQDSVQEGEKPYQCSECGKSFSGSYRLTQHWITHTREKPTVHQECEQGFDRNASLSVYPKTHTGYKFYVCNEYGTTFSQSTYLWHQKTHTGEKPCKSQDSDHPPSHDTQPGEHQKTHTDSKSYNCNECGKAFTRIFHLTRHQKIHTRKRYECSKCQATFNLRKHLIQHQKTHAAKTTSECQECGKIFRHSSLLIEHQALHAGEEPYKCNERGKSFRHNSTLKIHQRVHSGEKPYKCSECGKAFHRHTHLNEHRRIHTGYRPHKCQECVRSFSRPSHLMRHQAIHTAEKPYSCAECKETFSDNNRLVQHQKMHTVKTPYECQECGERFICGSTLKCHESVHAREKQGFFVSGKILDQNPEQKEKCFKCNKCEKTFSCSKYLTQHERIHTRGVKPFECDQCGKAFGQSTRLIHHQRIHSRVRLYKWGEQGKAISSASLIKLQSFHTKEHPFKCNECGKTFSHSAHLSKHQLIHAGENPFKCSKCDRVFTQRNYLVQHERTHARKKPLVCNECGKTFRQSSCLSKHQRIHSGEKPYVCDYCGKAFGLSAELVRHQRIHTGEKPYVCQECGKAFTQSSCLSIHRRVHTGEKPYRCGECGKAFAQKANLTQHQRIHTGEKPYSCNVCGKAFVLSAHLNQHLRVHTQETLYQCQRCQKAFRCHSSLSRHQRVHNKQQYCL

Variants of: B1
Conditions: with syne4_human SYNE4, Q8N205

Row | Variant | effect of a mutation on the interaction
1 | MASSAASSEHFEKLHEIFRGLHEDLQGVPERLLGTAGTEEKKKLIRDFDEKQQEANETLAEMEEELRYAPLSFRNPMMSKLRNYRKDLAKLHREVRSTPLTATPGGRGDMKYGIYAVENEHMNQLQSQRAMLLQGTESLNRATQSIERSHRIATETDQIGSEIIEELGEQRDQLERTKSRLVNTSENLSKSRKILRSMSRKVTTNKLLLSIIILLELAILGGLVYYKFFRSH [R124Q] | with no effect
2 | MASSAASSEHFEKLHEIFRGLHEDLQGVPERLLGTAGTEEKKKLIRDFDEKQQEANETLAEMEEELRYAPLSFRNPMMSKLRNYRKDLAKLHREVRSTPLTATPGGRGDMKYGIYAVENEHMNRLQSQRAMLLQGTESLNRATQSIERSHRIATETDQIGSEIIEELGEQRDQLEHTKSRLVNTSENLSKSRKILRSMSRKVTTNKLLLSIIILLELAILGGLVYYKFFRSH [R176H] | with no effect

Variants of: B2
Conditions: with creb3_human CREB3, O43889

Row | Variant | effect of a mutation on the interaction
3 | MGRFRGGLRCIKYLLLGFNLLFWLAGSAVIAFGLWFRFGGAIKELSSEDKSPEYFYVGLYVLVGAGALMMAVGFFGCCGAMRESQCVLGSFFTCLLVIFAAEVTTGVFAFIGKGVAILHVQTMYEEAYNDYLKDRGKGNGTLITFHSTFQCCGKESSEQVQPTCPKELLGHKNCIDEIETIISVKLQLIGIVGIGIAGLTIFGMIFSMVLCCAIRNSRDVI [R118L] | with no effect

Variants of: B3
Conditions: with rufy1_human RUFY1, Q96T51
Chain of rufy1_human RUFY1, Q96T51 (Q96T51 whole entry): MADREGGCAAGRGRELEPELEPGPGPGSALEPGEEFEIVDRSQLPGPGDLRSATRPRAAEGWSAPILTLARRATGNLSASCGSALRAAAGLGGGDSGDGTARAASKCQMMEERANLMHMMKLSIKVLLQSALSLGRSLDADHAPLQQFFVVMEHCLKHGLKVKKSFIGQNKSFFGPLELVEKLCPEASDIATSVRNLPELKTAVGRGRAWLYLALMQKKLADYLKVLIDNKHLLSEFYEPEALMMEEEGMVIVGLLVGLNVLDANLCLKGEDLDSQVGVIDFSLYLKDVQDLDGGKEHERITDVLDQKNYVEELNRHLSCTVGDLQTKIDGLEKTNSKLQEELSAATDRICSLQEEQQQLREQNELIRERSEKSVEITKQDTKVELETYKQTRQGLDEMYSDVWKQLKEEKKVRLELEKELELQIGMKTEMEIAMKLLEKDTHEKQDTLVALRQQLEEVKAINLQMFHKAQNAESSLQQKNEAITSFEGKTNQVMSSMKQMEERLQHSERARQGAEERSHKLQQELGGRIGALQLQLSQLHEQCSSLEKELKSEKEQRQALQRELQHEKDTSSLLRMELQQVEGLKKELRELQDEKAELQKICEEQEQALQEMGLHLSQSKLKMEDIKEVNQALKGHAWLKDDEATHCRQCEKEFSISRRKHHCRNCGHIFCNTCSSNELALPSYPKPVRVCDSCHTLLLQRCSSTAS

Row | Variant | effect of a mutation on the interaction
4 | MEAIWLYQFRLIVIGDSTVGKSCLIRRFTEGRFAQVSDPTVGVDFFSRLVEIEPGKRIKLQIWDTAGQERFRSITRAYYRNSVGGLLLFDITNRRSFQNVHEWLEETKVHVQPYQIVFVLVGHKCDLDTQRQVTRHEAEKLAAAYGMKYIETSARDAINVEKAFTDLTRDIYELVKSGEITIQEGWEGVKSGFVPNVVHSSEEVVKSERRCLC [R177S] | disrupting interaction strength

Variants of: B4
Conditions: with KRT15, P19012
Chain of KRT15, P19012 (P19012 whole entry): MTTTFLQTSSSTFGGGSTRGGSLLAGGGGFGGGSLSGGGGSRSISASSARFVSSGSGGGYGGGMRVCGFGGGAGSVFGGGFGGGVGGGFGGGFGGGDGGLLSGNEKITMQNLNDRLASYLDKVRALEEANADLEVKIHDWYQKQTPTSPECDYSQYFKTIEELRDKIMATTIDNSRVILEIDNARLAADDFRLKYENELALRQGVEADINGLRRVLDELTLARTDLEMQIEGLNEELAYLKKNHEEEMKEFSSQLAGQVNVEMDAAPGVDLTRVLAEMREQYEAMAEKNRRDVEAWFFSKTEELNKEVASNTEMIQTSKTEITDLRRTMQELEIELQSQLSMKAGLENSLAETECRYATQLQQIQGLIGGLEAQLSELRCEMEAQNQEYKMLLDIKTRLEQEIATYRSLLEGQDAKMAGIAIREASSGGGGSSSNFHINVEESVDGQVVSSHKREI

Row | Variant | effect of a mutation on the interaction
5 | P11A | with no effect

Variants of: B4
Conditions: with traf1_human TRAF1, Q13077
Chain of traf1_human TRAF1, Q13077 (Q13077 whole entry): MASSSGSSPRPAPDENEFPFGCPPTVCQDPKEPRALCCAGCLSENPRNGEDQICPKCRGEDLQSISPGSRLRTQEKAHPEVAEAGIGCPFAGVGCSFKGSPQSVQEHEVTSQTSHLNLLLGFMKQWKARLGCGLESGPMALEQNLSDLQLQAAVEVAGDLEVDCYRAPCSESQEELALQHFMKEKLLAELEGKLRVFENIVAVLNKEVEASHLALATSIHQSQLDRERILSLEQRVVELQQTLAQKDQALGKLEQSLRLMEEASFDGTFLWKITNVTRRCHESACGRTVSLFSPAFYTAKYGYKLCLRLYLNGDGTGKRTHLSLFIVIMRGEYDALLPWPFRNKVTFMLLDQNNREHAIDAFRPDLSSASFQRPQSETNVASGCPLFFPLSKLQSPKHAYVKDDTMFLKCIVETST

Row | Variant | effect of a mutation on the interaction
6 | P11A | with no effect

Variants of: B5
Conditions: with goga2_human GOLGA2, Q08379

Row | Variant | effect of a mutation on the interaction
7 | MEEKRRRARVQGAWAAPVKSQAIAQPATTAKSHLHQKPCQTWKNKEHHLSDREFVFKEPQQVVRRAPEPRVIDREGVYEISLSPTGVSRVCLYPGFVDVKEADWILEQLCQDVPWKQRTGIREDITYQQPRLTAWYGELPYTYSRITMEPNPHWHPVLRTLKNRIEENTGHTFNSLLCNLYRNEKDSVDWHSDDEPSLGRCPIIASLSFGATRTFEMRKKPPPEENGDYTYVERVKIPLDHGTLLIMEGATQADWQHRVPKEYHSREPRVNLTFRTVYPDPRGAPW [G39C] | with no effect

Variants of: B6
Conditions: with gpt2l_human GPATCH2L

Row | Variant | effect of a mutation on the interaction
8 | S59G | with no effect
9 | R605Q | with no effect
10 | R223C | with no effect
11 | S662A | with no effect
12 | T654I | with no effect
13 | E309G | with no effect

Variants of: B6
Conditions: with ntf2_human NUTF2, P61970
Chain of ntf2_human NUTF2, P61970 (P61970 whole entry): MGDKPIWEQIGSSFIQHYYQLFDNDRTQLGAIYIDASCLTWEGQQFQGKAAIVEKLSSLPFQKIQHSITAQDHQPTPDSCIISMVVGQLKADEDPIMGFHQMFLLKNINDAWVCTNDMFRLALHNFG

Row | Variant | effect of a mutation on the interaction
14 | S59G | with no effect

Variants of: B6
Conditions: with tri41_human TRIM41, Q8WV44

Row | Variant | effect of a mutation on the interaction
15 | S59G | with no effect
16 | N82S | with no effect
17 | T164M | with no effect
18 | R223C | with no effect
19 | S662A | with no effect
20 | T654I | with no effect
21 | E309G | with no effect

Variants of: B6
Conditions: with zn792_human ZNF792, Q3KQV3
Chain of zn792_human ZNF792, Q3KQV3 (Q3KQV3 whole entry): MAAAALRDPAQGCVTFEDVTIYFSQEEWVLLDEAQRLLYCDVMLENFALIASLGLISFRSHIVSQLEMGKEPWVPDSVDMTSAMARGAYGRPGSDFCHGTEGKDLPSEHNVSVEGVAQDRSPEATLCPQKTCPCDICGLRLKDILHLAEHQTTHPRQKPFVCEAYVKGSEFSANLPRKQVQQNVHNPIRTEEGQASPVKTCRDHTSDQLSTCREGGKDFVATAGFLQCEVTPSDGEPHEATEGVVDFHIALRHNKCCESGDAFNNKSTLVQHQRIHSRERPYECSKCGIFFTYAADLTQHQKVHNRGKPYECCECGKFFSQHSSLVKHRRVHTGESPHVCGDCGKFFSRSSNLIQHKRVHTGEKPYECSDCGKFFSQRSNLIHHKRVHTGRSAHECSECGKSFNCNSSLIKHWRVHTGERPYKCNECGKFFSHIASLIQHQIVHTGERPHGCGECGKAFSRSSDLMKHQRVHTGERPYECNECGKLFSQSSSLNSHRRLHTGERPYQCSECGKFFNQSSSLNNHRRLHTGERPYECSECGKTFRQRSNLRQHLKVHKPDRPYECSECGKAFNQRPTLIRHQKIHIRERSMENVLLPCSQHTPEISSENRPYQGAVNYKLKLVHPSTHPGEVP

Row | Variant | effect of a mutation on the interaction
22 | S59G | with no effect
23 | T654I | with no effect

Variants of: B6
Conditions: with aen_human AEN

Row | Variant | effect of a mutation on the interaction
24 | S59G | with no effect
25 | N82S | with no effect
26 | R605Q | with no effect
27 | T164M | with no effect
28 | R223C | with no effect
29 | S662A | with no effect
30 | E309G | with no effect

Variants of: B6
Conditions: with zn792_human ZNF792, Q3KQV3
Remark: another data set of the same source

Row | Variant | effect of a mutation on the interaction
31 | N82S | with no effect
32 | R605Q | with no effect
33 | T164M | with no effect
34 | R223C | with no effect
35 | S662A | with no effect
36 | E309G | with no effect

Variants of: B6
Conditions: with aen_human AEN
Remark: another data set of the same source

Row | Variant | effect of a mutation on the interaction
37 | T654I | with no effect
